According to PMC3518142:

How the values were obtained:
GnRHR-DesK191 (human) [1] = target: GnRHR-DesK191 (human) (UniProt P30968); assay: radioligand binding; transfected MDA-MB-231 cells in 24-well plates, 90 minutes at room temperature with [125I]-Buserelin in the presence or absence of excess (10 uM) unlabeled Buserelin; cells washed, solubilized and counted; relative affinities given as Ki
[2] = target: endogenous GnRHR of MDA-MB-231 cells (human (endogenous in MDA-MB-231)) (UniProt P30968); assay: as above
[3] = target: Wild-type gonadotropin-releasing hormone receptor (human) (UniProt P30968); assay: as above
GnRHR-DesK191 (human) [4] = target: GnRHR-DesK191 (human) (UniProt P30968)

| Ki (GnRHR-DesK191 (human) [1]) [nM] | Ki [2] [nM] | Ki [3] [nM] | Buserelin-stimulated inositol phosphate (IP) production in transfected MDA-MB-231 cells, relative to WT GnRHR (% of WT levels) (GnRHR-DesK191 (human) [4]) | [125I]-Buserelin binding, percent of WT levels (% of WT levels) (GnRHR-DesK191 (human) [1]) | Substance |
| --- | --- | --- | --- | --- | --- |
| 700 | 1030 | 500 | 590 | – | Buserelin (peptide) |
| – | – | – | – | 139 | [125I]-Buserelin (peptide) |
